The assay concerns the target mouse CSL (amino acid residues 53-474), conserved and structurally ordered core domain (mouse, UniProt P31266 53-474). Put plainly: ITC. On the technique in general: Isothermal titration calorimetry measures the heat released or taken up as one component is titrated into another.

This is an account of results in PMC8100066 (2021).

Sequence of mouse CSL (amino acid residues 53-474), conserved and structurally ordered core domain (P31266 53-474): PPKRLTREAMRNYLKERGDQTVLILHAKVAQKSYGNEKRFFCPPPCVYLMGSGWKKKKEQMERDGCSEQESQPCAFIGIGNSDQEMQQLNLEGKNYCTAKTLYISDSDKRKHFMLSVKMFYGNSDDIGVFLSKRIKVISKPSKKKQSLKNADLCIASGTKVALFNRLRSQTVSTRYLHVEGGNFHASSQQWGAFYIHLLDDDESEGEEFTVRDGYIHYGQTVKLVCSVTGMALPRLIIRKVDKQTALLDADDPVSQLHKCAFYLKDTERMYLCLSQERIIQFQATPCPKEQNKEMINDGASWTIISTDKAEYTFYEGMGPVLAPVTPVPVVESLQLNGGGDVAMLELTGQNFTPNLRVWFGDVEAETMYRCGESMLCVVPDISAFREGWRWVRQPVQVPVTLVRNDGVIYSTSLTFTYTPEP

VLLSRKRRRQHGQLWFPEGFKVSEASKK [human NOTCH1 RAM peptide (residues 1754-1781)]: the Ka came to 4.63e+07 M⁻¹.
ARRKREHSTLWFPEGFKV [human NOTCH3 RAM peptide (residues 1665-1682), nonphosphorylated]: the Ka was 5.49e+06 M⁻¹.
